According to PMC6173309:

Target: SOX11 (UniProt P35716 34-132)
Test: EMSA

SOX11, sequence (P35716 34-132): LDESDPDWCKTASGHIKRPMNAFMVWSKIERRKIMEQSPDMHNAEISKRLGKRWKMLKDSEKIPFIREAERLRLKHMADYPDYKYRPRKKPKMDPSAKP

B1: modified Widom 601 with SOX11 site, free DNA (dsDNA)
DNA 1: CTGGAGAATCCCGGTCTGCAGGCCGCTCAATTGGTCGTAGACAGCTCTAGCACCGCTTAAACGCACGTACGGTATTGTTTATTTTGTTCCTCCGCCAAGGGGATTACTCCCTAGTCTCCAGGCACGTGTCAGATATATACATCCTGT
DNA 2: ACAGGATGTATATATCTGACACGTGCCTGGAGACTAGGGAGTAATCCCCTTGGCGGAGGAACAAAATAAACAATACCGTACGTGCGTTTAAGCGGTGCTAGAGCTGTCTACGACCAATTGAGCGGCCTGCAGACCGGGATTCTCCAG
  binding result: binds
